Experimental data from the DeepSol protein solubility set.

test: soluble on expression in E. coli; label from the status in PepcDB or PDB records

| Sequence | soluble on expression in E. coli |
| --- | --- |
| MDIVTLKDFYASVLGKRVQETLCGQLNLCWPDLTGKRVMGFGYALPYLSALRMRAQQCLAFMPAGQGALPWPCADKVATALVFEEDLPLPDASIDCILLIHALEYTENSFETLNEIWRVLVPNGQLIVIVPNRSGLWARNACTPFGYGEPYSRQQIVRLFEKTHFVSGSIQEVVHYMPSSGSVSRFFSFFYEPVARHLLPYFGGLLICQAQKRVYQGLEHHHHHH | not soluble |
| MDKEETKTKPRLLRYEEKKYEDVKPLETQPAEIAEKETLEYKTVRTFSESLKSEKTEDYLRESIIQQHMVSPEPASLKEKGKSRRKKDQTHACPNVRKARPVSYDRTEPKDDDVIRNIIRLREKLGWQTILPQHSLKYGSSKIAIQKITLKKPLEDDGEFVYCLPRKSPKSLYNPYDLQVINIVGSVKE | soluble |
| MDKFKYAFDNKRYHTWNYYLRNTFGEKVFKVSINAGFTCPNIDGSLGYGGCTYCSKEGSGDFAGNPKDNLISQFYNIKEMMLKKWPHAKYIGYFQAYTNTYAPLEVLKEKYETILELEDVIGLSISTRPDCLPDDIVEYLSELNKRTNLWVELGLQTIHDSTSKIINRGHDYKTFVEGVEKLKSKNIKVVVHIINGLPGEDYNMMMETAKAVGKMGVDGIKIHLLHVIKDTPMEKMLQNGMLTLMEQDEYINLVCDQLEILPETMIIHRLTGDGKRDELVGPIWSLKKWEILNKIDDTLKARNSYQGCKFV | soluble |
| MDKYRLLLLGGGRGLFDIDEDFMHWIDEFIEEHSNSIEITIVTGKNKKLYDNLTHKKPLKNIKVLGFVNDMYNLIRECDLMLTKPGGATIFEAIQSQTPVLVKMPKVGQEIENAKFIIDKGLGMIYSDDLDLKNIFYKLVSNEFDSIINFMKKNLKEFKTVIHPEKIADYISELIDNHLEHHHHHH | not soluble |
| MDLDLIQDLPILNFPPAIKIRANTNRDDDGGGCTTPTSSDHKIPPTTATTPPPPPQKPRPPSTPSSLGIRSCKRKLMTSLSKYEIIVNKDEIERFFSSVYNQTMASSTTTAITVAKRRRSFRSCSRR | not soluble |
| MDLEAPPTLLQLAAQCTVRKEVLTISVLQNLPMKLFPPLFKEADILRKAKMIKLLVEYWPYPSLLVGLLIDKTNLETFQAILEGVGTWLKRKYRPRMGKLQVVDLRNGHHDFWDMLAGREGGDQLVETMPEKQEVEGHSRRQRLRVFSDLSFKSSRHEDKQQTHLLQWAKDREGFLHLCCEKLEIGALGVSKVKKVLKLLQPEFIKELELNTVGNLSKLTKLVPCISKMRNLQKLMLVRIFGRHTYTPLEERNVTKILSLFPKLSYLQHLTIDDVYFLRDHMNELFRYLEAPLLSLTITLCQISQSDLESFSQHWNYGQLKHLCLKGVSLSTLNVTPLKFFLESVADTLQTLELEDCRMKDSHLRILLPALTKCTRLTSINFYDNNISRDVLQDLLHRTANMSQLTMELYPAPVEVYNEWSYVQVERFSQLCAELMNTLITVRRPKSVCFGTYSCYDCDTHCIYGNQTTFCECLE | not soluble |
| MDLHLKNLFGRFQEQFGSGPGLGPGSGVCLMIVEGISSNIIQSIFRASASLYSSEPWKRLRPGHLFGVRVGKDSDWSGKRQPFQCVQFIGGDGGDIAIYMYRSMSYALKMTDGDSWEMARDPNVEVFRVTYELESLMLPSNKRMVKSLSLEVSGTDRFPIMDVARCMTSGELQFRSPTLEELRLVFAVMKALSLVHPLLLQEEKQVRGLPRMIKFSPFIETVDVQWPSEMGKGHDFVAVTVSHPPGQSYEQKREDDELEIVSGMTA | soluble |
| MDLHLTVDLKKTKTLIDLADQAHLIIEQTTKLPKKEAAILFLLIDNQLVALGLAEEKATYKEVSFDHSILLKPTWDTELAYLAQAFLDDAKESGLTLEATPTTVKIPKSAVATVTNYKETVTFILERFGYSLFKKPAPKKARPAKARHKWTKEVSQIPFYIDTRQSKATVFWQKRNEMLIKAGATMMPEAPLNKDGSVGFSARFGEKLRDERKGQFKDFVTTEDIVLKSVNEVGLFLYFAGTNSWLELVDENGKTLNEWTVVE | not soluble |
| MDLPDPYLPGAISLFEQLDKKLLVVLRDGRKLIGFLRSIDQFANLILEDVVERTFVEKYFCETGQGFMLIRGENVELAGEIDDTIETGLTQVSPEEFRRLEDEYIAKNPPKFLKRQAEKTEEHDA | not soluble |
| MDLSTSGSLPCHLPLSLLTNLQTPPIDTSFSSPPATSSSSLLSPSPSSAFRPVVPKSLMNPQPAMDTFYMSAIQSLVVSTTNDDQYSEHGALEGSKSLAKDENASTSAGTILCQVCSDKASGFHYGVFACEGCKGFFRRSIQQKITYRACTRAEDCLILRNNRNRCQCCRLKKCLAVGMSRDAVRFGRVPKREKARMFEEMQKTNVQSQRDQIAIQYENLTEVMHKINQAFGTLQATLEKCTGPIYTDRCPITSNFIVIPLKAAIDFANSIPAFLSITQTQRVHLLQNSVFDVMLLASASASTSQHFPPGGLTYDQSSANPIIPQAIQSISARIRQLPPQTVPILTAIAVCQADLLPESQQPMLLAERLWCVLGKLGGIQSLATAPSLLADVRTLRQWHSDRLRQMSQISQHFSQNLLIAPVAAAAPVLLPPAFLSPPASATSTSSSSVKSEFIERHPSIASLLERPRRISSSGAQEPLNLSLPHVRHQVKRDVDSDEQLEEMKVSPVPTTLSE | not soluble |
| MDMNVEIFAGIVNNPLTKKALRNLSGSCKTCGDKRIKIAIDYALGYRSDACWKCRAAAKVVKKVIEAGGRAFNVDMNEIREKFRDAYWRKGLASVIKGIAHFGVRKPFVPGAPFQVVWDITYSCNLRCKHCYATAGKPLQDELTTDEALETIDKLDRLGVTIIAFSGGEPLVRRDIFELTRYAAEKGIYVAIATNGTLITEEIAKRMKENGVGYVQISLDGMKETHEAFRGIRGCFDKTVEGIRNAVKTGLFVNVSMTVTRYNYHEVPKVVELCEKLGVNWFMHYNFIPTGRGREIVEADITPEQREELLKWLYEKNYSSNISLLSTAPQFARVALQCQGEIVPTHFYNVNAGERLKELAEFIGGCGAGRFYFAIKANGDIQPCVFFPLKVGNVREDDLEELWLHNHVFEDLRDKDILEGCGSCGYRYVCGGCRARAYNYFGDYTKPDPGCVNNRRWWERISKIEVRA | not soluble |
| MDNAHTPPFAGLTPDAILDAVESLGLRASGSLLALNSYENRVYQVGLDDAAPLVAKFYRPARWSDAAILEEHAFSLQLAEREIPAVPPLAFGGRTLHGHGGFRFALFERRGGRVPELDRDETLQWVGRFLGRIHALGRTEGYRHRPTLDMQSFGREPVDFVLGGGWLPPELEAVYRGVAEQALQGVARCFERAGPVAQLRLHGDCHVGNLLWTDAGPHFVDFDDSRMGPAVQDLWMLLSGERAEQSRQLGEVLAGYEDFCEFDLRELNLLEALRTLRLLHYSAWLARRWHDPAFPAAFPWFGAPRYWEEQILALREQIALMDEPPLWSCLEHHHHHH | not soluble |
| MDNKNFQSKTGFNLENTYLTLPNIFFSEQNPKGSKNPKLIKFNTSLAEELGLNEEVLNSDFGLNIFAGNETFPGIVPIAQAYAGHQFGHFTMLGDGRALLLGEHVTKDCKRYDVQLKGSGRTIYSRGGDGKAALAPMLREYIISEGMHGLGIPTTRSLAVVSTGEEVLRERFEQGAILTRIASSHIRVGTFAYAAQWGTLEDLKSLADYTIKRHFPNIADNENKYILFLEEVINRQAELIVKWQSVGFIHGVMNTDNMVISGETIDYGPCAFMDTYDTNTVFSSIDYAGRYAYGNQPNMALWNLARFSEALLPLLNPNLDEAVNIAKKSISNFSKLYKKYWFNKMRTKLGLFTEKENDELLIEGLLSTMQKYEADFTNTFVSLTLNKFEDEKVFSSDEFKTWYALWQNRLKEENRPQEEVRNLMMNNNPYIIPRNHLVEEALKNAEKGDFTFMDNLLEALKNPYSYSKDLEKYTKLPEKSDTPYVTYCGTLEHHHHHH | not soluble |
| MDNMKRNMPYLPSFKLTDFDIKTLVQPILCPRSQEIQYYETLSKISTFAQSNINNDVFFSIIDNTFIQTLALQQIRFSLEKYPHQLHSFNIKLSCLADEDFVRELLSFHGAKFALEISELDCYTESKEIRENLSVLQANNIEIWLDDYHRNNKLANMSLGNILWDRIKIDKSFLKHADQESIQALEYFLAPFCLHGLIFEGAEYIEHHKMLKTSQSLTQGYYYFRPSPINSLDSKPRVAESIKLSYAG | not soluble |
| MDNNIDFIVTWVNGGDPDWLKKKNKYLPVNESNENMNSESRYRDFDIFKFWFRAVEKFAPWVHKIYLITDNQVPDWLDTRNSKLTVIDHRDIMDADWLPTFNSNAIELNAYKIKNLSEKFVLFNDDTILNSYVDKVDFFDENYPKDIYVESPIMATKGSVDHIMVNNVEIINEFFEKKNFYKKNLTKVFNPKIGIKLLRTLALLPSSKFAGFWNSHLPISYNKTTFETVWSNCEGKLVATSKNKFRTAYDVSHWLMRYWQLASGNYHLQNNIGKVYDLSSQNIDEVVTQLQRSHSKIICLNDNDELDDYEGVKGKLVTTLNEKFSEKSKFELLEHHHHHH | soluble |
| MDPELQCIRECRLAQLKNNSGGTNGDRNSGANNGGGENSAPVGAAIANFLEPQALERLSRVALVRRDRAQAVETYLKKLIATNNVTHKITEAEIVSILNGIAKQQNSQNNSKIIFEAAALEHHHHHH | soluble |
| MDPFDEIVIKNYLSFPLVLQKLLSIKKLRRIEFFSQNMATHIVFDELGMTTKGFRPDKEVEKLLLKLELIDKRIERTLFRQKHFERFWATLKPLEQQLLIRRFKYKEEVNCPHRLIESVLDEIEEIETAICLMENIELEENELSDDVEENLERMCDFFAL | not soluble |
| MDPNFHNTGPSGSAPRKPETWRSCKEANKVIEMFYSEGNFYHDIYMEELANLAETSHKNVRDTLSRLRKKDERAGKYVPPPPKQMYEFTSEQRGALDQAFLVTPQMDSDGARELSEITGLTVKQINNWFCNQRRKADGRSAEKDKKRRERIREDMKKNGLGRVGTFRSEAVELFEKEYETMLQLEAIGGGKVRIPYTELVEKTGMERKKIRDWFSKRKGRDKRFLENMENTREVSPQNTQQNIQDILIKIVTQKEESALQRHAPEMRDAGQRDGFCLFGFFLRD | not soluble |
| MDPTLYCVVAVDTKLGIGKNRCLPWPALRGDMRRFRQLTTDCAPGKQNMVVMGRRTWLSIPAGCRPLAGRINVVLSRTLETPPPGAHFLASSLDAALGLARSPELAQQIDKVWVIGGGDLYREALTGPWPVRLFLTRVLHDFACDVFLSHDSLAAYARVNPKPGEQERVFQERGIFYMFETYIKVTQSSDTALPDLERPRPATPPFSETS | soluble |
| MDPVIKLVAHAQEMSMTIPRRQACMVYGKLNVTLKKGDVQEERDKRVTDGYVHIPEDMPQGRFDFGFTREDADVNIGTGQSTYELALDTAARRITGQVLFEQDIIAPGFGDWRPLIDFSCGDLVGVRIWGKELVLPVTSITRETTGWRAHVGGQLINDRRKIISENRKILADIESERRER | not soluble |
| MDREVEAQIGLNNVKILKSNILDSDEGKLFLKFGDEDLVIGELESLKAIQSTETILCPKPFGIIRRNGSYSLITSYIDFQLRKDWALAGSQLAKMHAKNGEQLAQNARRTRFVSVNSGMSDISKSEEGEQIGTENFGFHVTTCCGRLGQENDWTETWEEFFIRHRLKPQIDRLIETHNDRQLFELSEILYTKTAKLLKCRENVLPSLVHGDLWGGNWSMTTADGAPEPIIFDPSSSYSDPEFEFGIMKMFGGWTQDFENKYEKIIKTADGKNQRVLLYELYHNLNHWNHFGNSYRKKEKKLDKIYNNVYNNCYNNVRKNYCTKRITPKSGKLRNKAVRHPDFLANGIRRSPNLNFRSAIVICRSPFAAQPWYVAQLSKLEVMITDLIQM | not soluble |
| MDRIPFGIRQLDSIINGGAPAGSVVLLSGEAGAGSREFMHTSALINGLEQVDTELHDLYYGDRSPDAVAPDEVHYISFTTNESQLVSEMRLAMDDDVVDKGSRAVEFHDLSERYFHISPVPREWYASETASITDLRARHEREDLLGTLGMVLNEVAANNLVVIDSLSDLVSAMGEEIEWSDISSLVQGLQKAAHQWGCLLLLHINPETLSTVRHGQLVDASHGTMEFAWESGGSTRARTLVVQQFRGVLSQIEDEDIVQFETELGDAGFDISDVRKIRLEHHHHHH | not soluble |
